According to patent EP4588489A1, “LINKER FOR ANTIBODY-DRUG CONJUGATE AND USE THEREOF” (priority 2022, dated 2024):
Residue numbers refer to the chain shown, from its start. Where two headings read alike, the source gives them in different places.

T1: TROP2 (UniProt P09758 27-323, limits assumed)
T1 sequence (looked up): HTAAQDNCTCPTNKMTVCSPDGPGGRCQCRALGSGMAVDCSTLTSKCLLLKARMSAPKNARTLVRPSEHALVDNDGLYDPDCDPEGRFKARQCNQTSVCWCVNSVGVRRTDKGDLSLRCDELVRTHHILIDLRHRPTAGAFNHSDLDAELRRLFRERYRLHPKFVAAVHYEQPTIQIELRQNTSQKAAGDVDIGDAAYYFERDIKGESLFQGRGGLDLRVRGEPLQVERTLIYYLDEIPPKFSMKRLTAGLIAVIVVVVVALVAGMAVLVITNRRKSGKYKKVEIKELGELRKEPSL

T2: BCMA (UniProt Q02223 1-184, limits assumed)
T2 sequence (looked up): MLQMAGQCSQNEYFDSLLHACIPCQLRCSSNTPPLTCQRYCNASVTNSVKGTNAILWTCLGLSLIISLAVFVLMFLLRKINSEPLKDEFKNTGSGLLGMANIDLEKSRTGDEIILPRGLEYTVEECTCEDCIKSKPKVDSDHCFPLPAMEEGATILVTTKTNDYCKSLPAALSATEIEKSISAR

B1: ADC01 (Datopotamab conjugated to GGFG-Dxd) (antibody, human IgG1, kappa, V domains shown)
VH: QVQLVQSGAEVKKPGASVKVSCKASGYTFTTAGMQWVRQAPGQGLEWMGWINTHSGVPKYAEDFKGRVTISADTSTSTAYLQLSSLKSEDTAVYYCARSGFGSSYWYFDVWGQGTLVTVSS
VL: DIQMTQSPSSLSASVGDRVTITCKASQDVSTAVAWYQQKPGKAPKLLIYSASYRYTGVPSRFSGSGSGTDFTLTISSLQPEDFAVYYCQQHYITPLTFGQGTKLEIKR
modifications: linker-drug GGFG-Dxd on cysteines of reduced interchain disulfides; average DAR 3.73
B2: ADC02 (hRS7 conjugated to GGFG-Dxd) (antibody, human IgG1, kappa, V domains shown)
VH: QVQLQQSGSELKKPGASVKVSCKASGYTFTNYGMNWVKQAPGQGLKWMGWINTYTGEPTYTDDFKGRFAFSLDTSVSTAYLQISSLKADDTAVYFCARGGFGSSYWYFDVWGQGSLVTVSS
VL: B1 VL with M4L, T20S, T31I, S60D, Q100A, L104V
modifications: linker-drug GGFG-Dxd on cysteines of reduced interchain disulfides; average DAR 3.69
B3: ADC03 (hRS7 conjugated to CPD1) (antibody, human IgG1, kappa, V domains shown)
VH: B2 VH
VL: B1 VL with M4L, T20S, T31I, S60D, Q100A, L104V
modifications: linker-drug CPD1 on cysteines of reduced interchain disulfides; average DAR 3.82
B4: ADC04 (hRS7 conjugated to CPD2) (antibody, human IgG1, kappa, V domains shown)
VH: B2 VH
VL: B1 VL with M4L, T20S, T31I, S60D, Q100A, L104V
modifications: linker-drug CPD2 on cysteines of reduced interchain disulfides; average DAR 3.92
B5: anti-BCMA-005-Hu178-CPD-D4 (antibody, human IgG1, kappa, V domains shown)
VH: EVQLVESGGGLVKPGGSLRLSCAASGFTFSNFDMAWVRQAPGKGLEWVASIVTRGDDTYYRDSVRGRFTISRDNAKNTQYLQMNSLRAEDTAVYYCARHDYGGPSGWFGYWGQGTLVTVSS
VL: DIQMTQSPSSLSASVGDRVTITCRASQGFSNNLNWYQQKPGKTPKPLIYYTSNLHSGVPSRFSGSGSGTDYSLTISSLQPEDFATYYCQQDASFPPTFGQGTKLEIKR
modifications: linker-drug CPD1 on cysteines of reduced interchain disulfides; HIC-DAR 4.24
B6: ADC05 (hRS7 conjugated to CPD3) (antibody, human IgG1, kappa, V domains shown)
VH: B2 VH
VL: B1 VL with M4L, T20S, T31I, S60D, Q100A, L104V
modifications: linker-drug CPD3 on cysteines of reduced interchain disulfides; average DAR 3.99
B7: anti-BCMA-005-Hu178-CPD-D8 (antibody, human IgG1, kappa, V domains shown)
VH: B5 VH
VL: B5 VL
modifications: linker-drug CPD1 on cysteines of reduced interchain disulfides; HIC-DAR 7.73
B8: anti-BCMA-005-Hu178-vcMMAE-D4 (antibody, human IgG1, kappa, V domains shown)
VH: B5 VH
VL: B5 VL
modifications: vc-MMAE on cysteines of reduced interchain disulfides; HIC-DAR 3.78
B9: anti-BCMA-005-Hu178-vcMMAF-D4 (antibody, human IgG1, kappa, V domains shown)
VH: B5 VH
VL: B5 VL
modifications: vc-MMAF on cysteines of reduced interchain disulfides; HIC-DAR 3.86
B10: anti-BCMA-005-Hu178-glucoseMMAE-NC-D4 (antibody, human IgG1, kappa, V domains shown)
VH: B5 VH
VL: B5 VL
modifications: Linker-MMAE derivative 1 on cysteines of reduced interchain disulfides; HIC-DAR 3.73
B11: anti-BCMA-005-Hu178-OMeMMAE-D4 (antibody, human IgG1, kappa, V domains shown)
VH: B5 VH
VL: B5 VL
modifications: Linker-MMAE derivative 2 on cysteines of reduced interchain disulfides; HIC-DAR 3.79

Legend:
Assay in all cases: cell-based or functional assay
TROP2 = target: T1, TROP2
BCMA [1] = target: T2, BCMA
BCMA [2] = target: T2, BCMA; remark: listed apart in the source

Binder	A431 IC50/µg/mL (in vitro cell viability assay) (TROP2) [µg/mL]	EC50(nM), inhibition of MM.1S cell proliferation (BCMA [1]) [nM]	EC50(nM), inhibition of MM.1S cell proliferation (BCMA [2]) [nM]	Relative activity (%), inhibition of MM.1S cell proliferation (BCMA [2]) [%]
B1	0.11			
B2	0.057			
B3	0.074			
B4	0.048			
B5		12.2		
B6	0.024			
B7		4.56		
B8		2.3	1.87	100
B9			1.12	166
B10			2.15	86.8
B11			2.42	77.1
